Common to all, as to conditions: chain copies: 2; label: tethered by stalled RNA polymerase
Series [1] has as its target T1, MS2 coat protein, dlFG mutant (Escherichia phage MS2, UniProt P03612, del68-81insG). Description: 4 mM Mg2+; no ligand; RNA-MaP array; 100 mM Tris-HCl pH 7.5, 80 mM KCl, 4 mM MgCl2, 0.1 mg/mL BSA, 1 mM DTT, 0.01 mg/mL yeast tRNA, 0.01% Tween-20; protein 1.5 nM to 3 uM; 37 C (Table S3).
The target in series [2] is T1, MS2 coat protein, dlFG mutant. Description: 4 mM Mg2+; L-tryptophan 2.4 mM; RNA-MaP array; 100 mM Tris-HCl pH 7.5, 80 mM KCl, 4 mM MgCl2, 0.1 mg/mL BSA, 1 mM DTT, 0.01 mg/mL yeast tRNA, 0.01% Tween-20; protein 1.5 nM to 3 uM; 37 C (Table S3).
Series [3] has the same target. Nature of the series: 4 mM Mg2+; theophylline 2 mM; RNA-MaP array; 100 mM Tris-HCl pH 7.5, 80 mM KCl, 4 mM MgCl2, 0.1 mg/mL BSA, 1 mM DTT, 0.01 mg/mL yeast tRNA, 0.01% Tween-20; protein 1.5 nM to 3 uM; 37 C (Table S3).
For series [4] the target is unchanged. Nature of the series: 4 mM Mg2+; FMN 200 uM; RNA-MaP array; 100 mM Tris-HCl pH 7.5, 80 mM KCl, 4 mM MgCl2, 0.1 mg/mL BSA, 1 mM DTT, 0.01 mg/mL yeast tRNA, 0.01% Tween-20; protein 1.5 nM to 3 uM; 37 C (Table S3).

B1: Eterna 7742068 (Same State - Tryptophan B) (ssRNA)
RNA: AGUACAAUGGCGGCCGCCACUCAACGCAGAUCAAAGAUCUGCGUUCACUCAGUGAUGUUGAGUGAGAGGACCGGGCCUUUGUACA
As a reminder, the Kd is the equilibrium constant for the complex coming apart. Higher therefore signals a looser complex. In series [1], B1 showed a Kd of over 3000 nM.

B2: Eterna 9534 (Sensor v3, turn-off variant 2) (ssRNA)
RNA: GGUACUAUCACCUGAGUGGUAGUGCCAUAAGCUUGUGAUACAUGAGGAUCACCCAUGUCCUCAUUUGCUCGUCUUAU
B2 returned a Kd in series [1] of 600 nM.

B3: Eterna 7716240 (Exclusion - Theophylline B) (ssRNA)
RNA: GGUUUAUAAGAGGAUACCAGUACAAAUAAAGUACAUUAAUAGUAGAGUGAUGUUCUAAAGUACCCUUGGCAGCUUAGAUUAAGUU
In series [1], B3 yielded a Kd of over 3000 nM.

B4: Eterna 6061522 (Exclusion 3) (ssRNA)
RNA: AAUUCGGCAGGAUAUACAUGAGGAUCACCCAUGUAAAUUUUUCGUUUAACUUGAAUGUGUAGAAGGGCCAUUUA
In series [1], B4 showed a Kd of 22.8 nM.

B5: Eterna 6430466 (Small Loop Same State NG 3) (ssRNA)
RNA: UUCGAGCCAAGGCUCGCGAGUACACAGGAUAUGGAAAGUCACAUGAGGAUCACCCAUGUCCAAAACCAGAAGGGUGAGACUAAG
With B5, binding in series [1] was put at a Kd of 458 nM.

B6: Eterna 5979585 (Sensor, turn-off variant 1) (ssRNA)
RNA: UACACUGCAUGAGGAUCAAACAUGAGGAUCACCCAUGUAUAGCAGGCUUUUUGUACGUCUUAUAAUUAUGUAGUGUA
Molecule B6 had a dissociation constant (Kd) in series [1] of 15.1 nM.

B7: Eterna 6117727 (Exclusion NG 3) (ssRNA)
RNA: GGUUGUCAUAGUCAUCCUUUCCGUACAUGAGGAUCACCCAUGUAGGAUAUGCUACUCACAGUGUGGCAGAAGGGCGUGUGUCUU
For the molecule B7, in series [1], binding was characterised by a dissociation constant (Kd) of 17 nM.

B8: Eterna 15484 (Exclusion 5) (ssRNA)
RNA: CUUUGAUGAGGAUAUCGAGGUUAGUACAUGAGGAUCACCCAUGUUAUCCAGGUGUCGGAUCGAGAAGGUAUUGGAC
In series [1], B8 had an equilibrium dissociation constant (Kd) of 14.9 nM.

B9: Eterna 13336 (Sensor for hsa-mir-208a) (ssRNA)
RNA: AGUCCAGCCAGAGCUGGACAAAAGCAUGUACAUGAGGAUCACCCAUGUUCAUGUACAAGCUUUUUGCUCGUCUUAAA
Molecule B9 yielded a Kd in series [1] of 592 nM.

B10: Eterna 7745506 (Same State - Arginine B) (ssRNA)
RNA: CCGGGCGGCCGAAGGAGCGGGCGGACCCGAGUGAUGUUCGGGUGGCCCGUGAGGGCCGGUGCCCAGGUAGGUCGCGGAUCCGCCC
Turning to B10, the dissociation constant (Kd) in series [1] is over 3000 nM.

B11: Eterna 11801 (Exclusion 2) (ssRNA)
RNA: AGUAACAGAGGAUAUACUGUUUUAUGUGUUUAUUAUUUUGAACAUGAGGAUCACCCAUGUAGAAGGCUGAAUAA
In the case of B11, in series [1], binding was put at a Kd of 23.2 nM.

B12: Eterna 1729 (Same State - Tryptophan A) (ssRNA)
RNA: GGAGUCCCGUUAGAUUGUGUAGAUACAAGACGAGGACCGGUACGGCCGCCACUCGCCAUCGUCCAGUGAUGUUGGGCGUCACGGG
As for B12, in series [1], the Kd is over 3000 nM.

B13: Eterna 1179 (Exclusion - Theophylline B) (ssRNA)
RNA: CACCCAGUCCUCGAUACCAGACUGGCACGUCAAAAGGUCCAGUGAUGUUGAGCCUAACAAGUCCCUUGGCAGCGACCAGUGUAUU
B13: the equilibrium dissociation constant (Kd) in series [1] was over 3000 nM.

B14: Eterna 7727518 (Exclusion - Tryptophan B) (ssRNA)
RNA: GUUUUGGGAUCGGCCGCCACUACAUGAGGAUCACCCAUGUGGACAAAUAGGGUUUUUAAGCUCGGUAGGACCGGGAUUCGAACAU
Turning to B14, binding in series [2] was characterised by a dissociation constant (Kd) of 67.5 nM.

B15: Eterna 5789023 (Sensor v3, turn-off variant 2) (ssRNA)
RNA: ACAAGCUUUUUGUUCGUCUUAUAAAAUCCUAAGAGGAAAACAUGAGGAUCACCCAUGUAACAAAGACGGACUCAUGU
With B15, in series [1], the affinity, expressed as Kd, was 13 nM.

B16: Eterna 6418068 (Inverted Exclusion NG 1) (ssRNA)
RNA: CGUGCUAUGUAGAAGGCAGAUCUGAUUCAGAUCUGAGGAUAUACAUGAGGAUCACCCAUGUUAUGCACCAGCACGAGAGUGCAC
Regarding B16, the Kd in series [1] came out at 7.12 nM.

B17: Eterna 7739799 (Exclusion - Arginine A) (ssRNA)
RNA: CAGACCACAGAGUGAUGUUCUGUGUCCGAAGGAGCGCGCGAGAGCGCAGGUAGGUCGCGGAUACAGUUGACGUACCUUCAAGACA
Turning to B17, the Kd in series [1] is over 3000 nM.

B18: Eterna 7614506 (Exclusion - Tryptophan A) (ssRNA)
RNA: UAUAUAUAUCACGAACUGUGGUGUAUGUCUCGAGGACCGGUACGGCCGCCACUCGCGCGGCCUCACAUGAGGAUCACCCAUGUUG
Consider B18, for which the Kd in series [2] is 46 nM.

B19: Eterna 7646211 (Same State - Theophylline A) (ssRNA)
RNA: CAUACUUUAGUAUGUAAUGUGGACAGUGAUACCAGAUACGAAAGUAUCCCUUGGCAGCACAACAUGAGGAUCACCCAUGUAUUUU
Molecule B19 had a dissociation constant (Kd) in series [3] of 13.4 nM.

B20: Eterna 7700218 (Same State - Theophylline A) (ssRNA)
RNA: UGGUUAAGCAGUGAUGUUGCAAGUGAUGAUACCAGUUAAGAAGAGAACCCUUGGCAGCAUAAAGUGCGCUCUGAUGAGUGUGCUU
For the molecule B20, the Kd in series [1] is over 3000 nM.

B21: Eterna 13502 (Sensor v3, turn-off variant 2) (ssRNA)
RNA: AGUAGAUCUACGCUUGCGUGGAUCUGCAAUGUAGGUGUUACAUGAGGAUCACCCAUGUCCUCAUUUGCUCGUCUUAG
For B21, the Kd in series [1] was determined as 312 nM.

B22: Eterna 7686162 (Exclusion - FMN A) (ssRNA)
RNA: UACAUAUAAUUAUUUCUACAUUUAUUUAGUCAGGAUAUCGAUUAAACGAGAAGGGACAAUAUCAAGUGAUGUUUGAUAAUUCAAA
Regarding B22, the equilibrium dissociation constant (Kd) in series [1] is over 3000 nM.

B23: Eterna 7740606 (Exclusion - Theophylline A) (ssRNA)
RNA: AAGUCUCGUUAAUUCGAGGUUACGAUCGAUACCAGUAGCGAGAGGUACCCUUGGCAGCGAAGUGAGUGAUGUUCAUGAAAGAAGA
Take B23: in series [1], the Kd is over 3000 nM.

B24: Eterna 6415900 (Inverted Small Loop Same State NG 3) (ssRNA)
RNA: UGCUACGUUUCGUAGCAGUGUCAUCGAGAAGGCCCUGACAUGAGGAUCACCCAUGUUGUUACAUGGGAGGAUAUCGAUGAUACA
The molecule B24 returned a Kd in series [1] of 12.1 nM. On the same count and under the same terms, to UUUGGGCAGUGAUGUUGCCCCUUU (ssRNA) [Eterna 7 (K4-TR_control)] belongs over 3000 nM.

B25: Eterna 6103763 (Same State NG 3) (ssRNA)
RNA: CAUUGACGACAAUUACAUGAGGAUCACCCAUGUUUUGGGAUGCAGGAUAUGUGGUAUAUUAAUUAACAGAAGGGCAAUAAUUUU
As to B25, the equilibrium dissociation constant (Kd) in series [4] was found to be 35.5 nM.

B26: Eterna 1699 (Same State - Theophylline B) (ssRNA)
RNA: UCGCAUUAACCGGAUACCAGCUUAGUGGGAUCUUCAAUCCGACAGAAAGUGAUGUUUUCUAGCCCUUGGCAGCCGAGAUUAUCAC
With B26, the Kd in series [1] is over 3000 nM.

B27: Eterna 7698835 (Same State - Arginine B) (ssRNA)
RNA: GCUAUGGUAGGAAGGAGCGCUUAUUUAUUUUUACGAGUGAUGUUCGGUAGUAGAUAGUUAAAGCAGGUAGGUCGCCUACUAUAGC
For the molecule B27, the dissociation constant Kd in series [1] is over 3000 nM.

B28: Eterna 6120937 (Same State NG 1) (ssRNA)
RNA: GCCAUCACAUGAGGAUAUGGCACCGUUUCGGUGCCAGAAGGCAUGUCAUAAGACAUGAGGAUCACCCAUGUAGUUAAGAUGGCA
On to B28, for which the Kd in series [1] was 922 nM.

B29: Eterna 5989570 (Sensor, turn-off variant 1) (ssRNA)
RNA: GUCAUCACACAUGGGAUCAACAUGAGGAUCACCCAUGUUGUCAAGUUUUUUGCUCGUCUUAUAAUACGUUUGAUGAC
In the case of B29, in series [1], the dissociation constant (Kd) turned out to be 30.2 nM.

B30: Eterna 7684838 (Same State - Theophylline A) (ssRNA)
RNA: AAAUUUAAUAUAUUUAAAUAAAUAUGUGAUACCAGACAUUUAUAAGUCCCUUGGCAGCACAAUGCAGUGAUGUUGCUUAUAAUAA
B30 displayed a Kd in series [1] of over 3000 nM.

B31: Eterna 6456081 (Exclusion NG 2) (ssRNA)
RNA: GGAUAGGACAGAGGAUAUACGUGCUAGAGAUACUAGCAAAAUUUCCACACAUGAGGAUCACCCAUGUAGAAGGCUGUCCUAUCG
For B31, the dissociation constant Kd in series [1] was 5.84 nM.

B32: Eterna 7691283 (Same State - Arginine B) (ssRNA)
RNA: AUUCUAUUGUGAAGGAGCGCGACUAGUAGUGAUGUUACUAUAUGACUUUAGUCUUAAUUCUCGCAGGUAGGUCGCACAAUAUAUA
With B32, the Kd in series [1] is over 3000 nM.

B33: Eterna 6030125 (Exclusion 6) (ssRNA)
RNA: GUGCGUGGCUAGGAUAUUGUGGAGUUUUGUCAGCGAGAAGGAGCCACAUGAGGAUCACCCAUGUGGUGUUGCUC
The molecule B33 came in with an equilibrium dissociation constant (Kd) in series [1] of 175 nM.

B34: Eterna 1186 (Exclusion - Theophylline B) (ssRNA)
RNA: GAUAGUUAGAGAGAUACCAGCGAUACCUAGAUGGAAAGUGAUGUUCGCCAUCAAUUGCACCGCCCUUGGCAGCUCUCUCUUUGCU
In series [1], B34 yielded a Kd of over 3000 nM.

B35: Eterna 1774 (Same State - Tryptophan B) (ssRNA)
RNA: CGAUCUUGGUCGGCCGCCACUACACCCACACCAAAUAGGAAAGUAGCGAGUGAUGUUUGUGACGUUAGGACCGGGACCACUGGUC
B35 displayed an equilibrium dissociation constant (Kd) in series [1] of over 3000 nM.

The record behind these values is PMC9170038.
